Assay results published in US20230287092A1 (AstraZeneca / MedImmune, published 2023).

Molecular target: cynomolgus monkey Aβ42 (cynomolgus monkey, UniProt P53601 672-713)
Experiment: cell-based or functional assay

Sequence of cynomolgus monkey Aβ42 (P53601 672-713 limits assumed): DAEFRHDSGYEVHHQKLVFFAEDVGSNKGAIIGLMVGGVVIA

B1: MEDI1814 (antibody, V domains shown)
VH: EVQLLESGGGLVQPGGSLRLSCAASMGNFNYQTMWWVRQAPGKGLEWVSVIGKTNENIAYADSVKGRFTISRDNSKNTLYLQMNSLRAEDTAVYYCAREWMDHSRPYYYYGMDVWGQGTLVTVSS
VL: SYELTQPPSVSVSPGQTASITCSGHNLEDKFASWYQQKPGQSPVLVIYRDDKRPSGIPERFSASNSGHTATLTISGTQAMDEADYYCSSQDTVTRVFGGGTKLTVL
  increase in total CSF Aβ42, 14 weekly doses, cynomolgus monkeys: ≤ 7.7 fold
  increase in total plasma Aβ42 against control, 14 weekly doses (10 or 100 mg/kg IV, 75 mg/kg SC), cynomolgus monkeys: ≤ 2060 fold
